Some targets named below: HLA-A*03:01; HLA-A*68:01; HLA-A*30:01; HLA-A*31:01; HLA-A*33:01.
Holding throughout (assay): IEDB peptide-MHC binding, purified MHC/competitive/radioactivity; filed as Kd, often an IC50 or EC50 that approximates it; ≥ and ≤ were set here for values at or beyond the usual limits of such assays
Details in all cases: source organism: Toxoplasma gondii

For the sequence AVVSLLRLLK, the Kd with HLA-A*03:01 was 17 nM; with HLA-A*68:01, 94 nM; with HLA-A*30:01, 8.1 nM; with HLA-A*31:01, 1300 nM; with HLA-A*33:01, 1100 nM.

With STFWPCLLR, the Kd came to 22 nM in the assay with HLA-A*03:01; 0.97 nM in the assay with HLA-A*68:01; 1270 nM with HLA-A*30:01; 1.2 nM in the assay with HLA-A*31:01; 3.4 nM in the assay with HLA-A*33:01.

For the origin of these results see the Immune Epitope Database (IEDB).
